Here are results for 1 molecule from patent USRE50313E1, “Musculoskeletal stem cell and medium for inducing differentiation of musculoskeletal stem cell” (CELLATOZ THERAPEUTICS, INC., priority 2017, dated 2025).

Some results are limits rather than exact numbers.

The subject of this test is hMSSCs. The experiment in a line: Differentiation tendency of MSSC medium vs. CM medium. The format is cell-based, human. As to conditions: as compared when the CM medium was used. The method, then: The differentiation capacity of a medium (hereinafter, “CM medium”) obtained by replacing the human noggin (Life Technologies), i.e., the constitutional ingredient 1) of the seven constitutional ingredients of the MSSC medium of Example 2, with a conditioned medium (a culture supernatant obtained after culturing CF1 cells with a medium obtained by replacing DMEM/F12 in a complete medium with knockout DMEM (supplemented with 20% knockout serum replacement (Invitrogen, USA), 1 mM glutamine, 1% nonessential amino acids (Invitrogen, USA), 0.1 mM β-mercaptoethanol, 0.1% penicillin-streptomycin and 5 mg/mL bovine serum albumin)) (the remaining constitutional ingredients 2)-7) are identical) was compared with that of the MSSC medium.
Noggin is generally used to maintain the characteristics of hESCs during culturing (Chaturvedi G, Simone P D, Ain R, Soares M J, Wolfe M W. Noggin maintains pluripotency of human embryonic stem cells grown on Matrigel. Cell Prolif. 2009 August; 42(4): 425-33).

B1: noggin: human noggin, constitutional ingredient 1) of the MSSC medium, 250 ng/mL (protein, UniProt Q13253 28-232, looked up)
Noggin: QHYLHIRPAPSDNLPLVDLIEHPDPIFDPKEKDLNETLLRSLLGGHYDPGFMATSPPEDRPGGGGGAAGGAEDLAELDQLLRQRPSGAMPSEIKGLEFSEGLAQGKKQRLSKKLRRKLQMWLWSQTFCPVLYAWNDLGSRFWPRYVKVGSCFSKRSCSVPEGMVCKPSKSVHLTVLRWRCQRRGGQRCGWIPIQYPIISECKCSC
As for B1, the “increase of tendency for osteogenic differentiation” value is at least 10 times.
